The values below come from patent US10766960 (dated 2020).

Where “and” joins values, the source holds several entries; their conditions need not be identical. Equal values may be shown once.

Common to all, as to assay: SPR
For orientation: Surface plasmon resonance follows binding to a sensor surface in real time, without labels.

One assay has as its target T1, FcgRIIa R (human, UniProt P12318).
T1 chain: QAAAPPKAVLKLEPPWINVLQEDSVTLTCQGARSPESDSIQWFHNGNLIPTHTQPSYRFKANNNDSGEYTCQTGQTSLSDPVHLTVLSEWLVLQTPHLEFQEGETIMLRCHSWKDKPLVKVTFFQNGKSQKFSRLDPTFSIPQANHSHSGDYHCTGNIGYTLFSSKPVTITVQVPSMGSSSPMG

Another assay deals with FcgRIIIa V (human, UniProt P08637).
The next assay addresses T2, FcgRIIa H (human, UniProt P12318).
T2 chain: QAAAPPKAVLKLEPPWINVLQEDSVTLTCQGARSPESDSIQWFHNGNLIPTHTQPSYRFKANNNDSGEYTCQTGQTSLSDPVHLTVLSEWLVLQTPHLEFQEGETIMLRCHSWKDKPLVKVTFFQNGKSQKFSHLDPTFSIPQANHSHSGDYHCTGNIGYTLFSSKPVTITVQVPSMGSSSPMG

For another assay, the target named is T3, FcgRIIb (human, UniProt P31994).
T3 chain: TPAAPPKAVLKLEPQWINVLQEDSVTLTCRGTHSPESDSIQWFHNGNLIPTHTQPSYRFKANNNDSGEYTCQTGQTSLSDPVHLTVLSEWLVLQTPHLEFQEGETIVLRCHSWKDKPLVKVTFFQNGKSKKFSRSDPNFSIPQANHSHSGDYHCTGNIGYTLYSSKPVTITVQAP

For a further assay, the target named is T4, FcgRIa (human, UniProt P12314).
T4 chain: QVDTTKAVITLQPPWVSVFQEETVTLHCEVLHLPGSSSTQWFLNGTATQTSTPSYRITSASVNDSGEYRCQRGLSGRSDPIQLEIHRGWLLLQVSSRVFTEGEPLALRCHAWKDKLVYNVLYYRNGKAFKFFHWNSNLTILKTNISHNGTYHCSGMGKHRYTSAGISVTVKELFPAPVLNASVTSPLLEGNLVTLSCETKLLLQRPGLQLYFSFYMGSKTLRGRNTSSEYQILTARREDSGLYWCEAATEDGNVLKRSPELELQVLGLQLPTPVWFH

In another assay the target is FcgRIIIa F (human, UniProt P08637).
Sequence of FcgRIIIa F (P08637 17-208): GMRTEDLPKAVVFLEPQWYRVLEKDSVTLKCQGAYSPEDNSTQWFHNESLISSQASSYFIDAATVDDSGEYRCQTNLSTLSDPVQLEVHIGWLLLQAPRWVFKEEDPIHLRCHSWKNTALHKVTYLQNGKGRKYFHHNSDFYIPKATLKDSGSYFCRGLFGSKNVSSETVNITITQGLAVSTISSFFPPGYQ

Sequence of FcgRIIIa V (P08637 17-208 F176V): as the sequence (P08637 17-208) above, with F160V counted along it

B1: H240-FA030/H240-FB084/L73-k0 (antibody)
chain 1: QDQLVQSGAEVKKPGASVKVSCKASGFNIKDTYIQWVRQAPGQGLEWMGRIDPLRKQTKYREKFEGRVTITADTSTNTAYMELSSLRSEDTAVYYCVRSGREFDYWGQGTLVTVSSASTKGPSVFPLAPSSKSTSGGTAALGCLVKDYFPEPVTVSWNSGALTSGVHTFPAVLQSSGLYSLSSVVTVPSSSLGTKTYTCNVNHKPSNTKVDKKVEPKSCDKTHTCPPCPAPEYYWGPSVFLFPPKPKDTLMISRTPEVTCVVVDVSDEEPKVKFNWYVDGVEVHNAKTKPREEQYNATYRVVSVLTVLHQDWLNGKEYKCKVSNKALPAPIEKTISKAKGQPREPQVYTLPPSRKEMTKNQVSLTCLVKGFYPSDIAVEWESNGQPENNYKTTPPVLDSDGSFFLYSKLTVDKSRWQQGNVFSCSVMHEALHNRYTQKSLSLSP
chain 2: QDQLVQSGAEVKKPGASVKVSCKASGFNIKDTYIQWVRQAPGQGLEWMGRIDPLRKQTKYREKFEGRVTITADTSTNTAYMELSSLRSEDTAVYYCVRSGREFDYWGQGTLVTVSSASTKGPSVFPLAPSSKSTSESTAALGCLVEDYFPEPVTVSWNSGALTSGVHTFPAVLQSSGLYSLSSVVTVPSSNFGTQTYTCNVDHKPSNTKVDKTVEPKSCDKTHTCPPCPAPELLGGPSVFLFPPKPKDTLMISRTPEVTCVVVDVSHEEPEVQFNWYVDGVEVHNAETKPREEQYNSTYRVVSVLTVLHQDWLNGKEYKCKVSNDALPMPIEETISKAKGQPREPQVYTLPPSREEMTKNQVSLTCLVKGFYPSDIAVEWESEGQPENNYKTTPPVLDSDGSFFLYSKLTVDKSRWQQGNVFSCSVMHEALHNHYTQESLSLSP
chain 3: DIQMTQSPSSLSASVGDRVTITCRASQDIHKYIAWYQQKPGQAPRLLIQYTSTLQPGVPSRFSGSGSGTDYTFTISSLQPEDIATYYCLQYEQLRTFGGGTKVEIKRTVAAPSVFIFPPSDEQLKSGTASVVCLLNNFYPREAKVQWKVDNALQSGNSQESVTEQDSKDSTYSLSSTLTLSKADYEKHKVYACEVTHQGLSSPVTKSFNRGEC
Broadly, the Kd is the free concentration of one partner at which half of the binding sites on the other are occupied at equilibrium, for simple one-to-one binding. A high value points to lower affinity. Regarding B1, the Kd turned out to be 270 nM with FcgRIIa R; 1.3 nM in the assay with FcgRIIIa V; 88 nM in the assay with FcgRIIa H; 2500 nM with FcgRIIb; 0.12 nM with FcgRIa; 4.2 nM with FcgRIIIa F.

B2: H240-FA021/H240-FB059/L73-k0 (antibody)
chain 1: QDQLVQSGAEVKKPGASVKVSCKASGFNIKDTYIQWVRQAPGQGLEWMGRIDPLRKQTKYREKFEGRVTITADTSTNTAYMELSSLRSEDTAVYYCVRSGREFDYWGQGTLVTVSSASTKGPSVFPLAPSSKSTSGGTAALGCLVKDYFPEPVTVSWNSGALTSGVHTFPAVLQSSGLYSLSSVVTVPSSSLGTKTYTCNVNHKPSNTKVDKKVEPKSCDKTHTCPPCPAPEYYWGPSVFLFPPKPKDTLMISRTPEVTCVVVDVSDEEPEVKFNWYVDGVEVHNAKTKPREEQYNATYRVVSVLTVLHQDWLNGKEYKCKVSNKALPAPIEKTISKAKGQPREPQVYTLPPSRKEKTKNQVSLTCLVKGFYPSDIAVEWESNGQPENNYKTTPPKLDSDGSFFLYSKLTVDKSRWQQGNVFSCSVMHEALHNRYTQKSLSLSP
chain 2: QDQLVQSGAEVKKPGASVKVSCKASGFNIKDTYIQWVRQAPGQGLEWMGRIDPLRKQTKYREKFEGRVTITADTSTNTAYMELSSLRSEDTAVYYCVRSGREFDYWGQGTLVTVSSASTKGPSVFPLAPSSKSTSGETAALGCLVEDYFPEPVTVSWNSGALTSGVHTFPAVLQSSGLYSLSSVVTVPSSSLGTQTYICNVNHKPSNTKVDKKVEPKSCDKTHTCPPCPAPELLGGPSVFLFPPKPKDTLMISRTPEVTCVVVDVSHEEPEVQFNWYVDGVEVHNAETKPREEQYNSTYRVVSVLTVLHQDWLNGKEYKCKVSNDALPMPIEETISKAKGQPREPQVYTLPPSREEMTKNQVSLTCLVKGFYPSDIAVEWESNGQPENNYKTTPPVLDSDGSFFLYSKLTVDKSRWQQGNVFSCSVMHEALHNHYTQESLSLSP
chain 3: DIQMTQSPSSLSASVGDRVTITCRASQDIHKYIAWYQQKPGQAPRLLIQYTSTLQPGVPSRFSGSGSGTDYTFTISSLQPEDIATYYCLQYEQLRTFGGGTKVEIKRTVAAPSVFIFPPSDEQLKSGTASVVCLLNNFYPREAKVQWKVDNALQSGNSQESVTEQDSKDSTYSLSSTLTLSKADYEKHKVYACEVTHQGLSSPVTKSFNRGEC
As to B2, the Kd was 280 nM with FcgRIIa R; 1.7 nM with FcgRIIIa V; 92 nM with FcgRIIa H; 1300 nM with FcgRIIb; 0.069 nM with FcgRIa; 4.4 nM with FcgRIIIa F.

B3: H240-FA030/H240-FB059/L73-k0 (antibody)
chain 1: QDQLVQSGAEVKKPGASVKVSCKASGFNIKDTYIQWVRQAPGQGLEWMGRIDPLRKQTKYREKFEGRVTITADTSTNTAYMELSSLRSEDTAVYYCVRSGREFDYWGQGTLVTVSSASTKGPSVFPLAPSSKSTSGGTAALGCLVKDYFPEPVTVSWNSGALTSGVHTFPAVLQSSGLYSLSSVVTVPSSSLGTKTYTCNVNHKPSNTKVDKKVEPKSCDKTHTCPPCPAPEYYWGPSVFLFPPKPKDTLMISRTPEVTCVVVDVSDEEPKVKFNWYVDGVEVHNAKTKPREEQYNATYRVVSVLTVLHQDWLNGKEYKCKVSNKALPAPIEKTISKAKGQPREPQVYTLPPSRKEMTKNQVSLTCLVKGFYPSDIAVEWESNGQPENNYKTTPPVLDSDGSFFLYSKLTVDKSRWQQGNVFSCSVMHEALHNRYTQKSLSLSP
chain 2: QDQLVQSGAEVKKPGASVKVSCKASGFNIKDTYIQWVRQAPGQGLEWMGRIDPLRKQTKYREKFEGRVTITADTSTNTAYMELSSLRSEDTAVYYCVRSGREFDYWGQGTLVTVSSASTKGPSVFPLAPSSKSTSGETAALGCLVEDYFPEPVTVSWNSGALTSGVHTFPAVLQSSGLYSLSSVVTVPSSSLGTQTYICNVNHKPSNTKVDKKVEPKSCDKTHTCPPCPAPELLGGPSVFLFPPKPKDTLMISRTPEVTCVVVDVSHEEPEVQFNWYVDGVEVHNAETKPREEQYNSTYRVVSVLTVLHQDWLNGKEYKCKVSNDALPMPIEETISKAKGQPREPQVYTLPPSREEMTKNQVSLTCLVKGFYPSDIAVEWESNGQPENNYKTTPPVLDSDGSFFLYSKLTVDKSRWQQGNVFSCSVMHEALHNHYTQESLSLSP
chain 3: DIQMTQSPSSLSASVGDRVTITCRASQDIHKYIAWYQQKPGQAPRLLIQYTSTLQPGVPSRFSGSGSGTDYTFTISSLQPEDIATYYCLQYEQLRTFGGGTKVEIKRTVAAPSVFIFPPSDEQLKSGTASVVCLLNNFYPREAKVQWKVDNALQSGNSQESVTEQDSKDSTYSLSSTLTLSKADYEKHKVYACEVTHQGLSSPVTKSFNRGEC
Take B3: the Kd in the assay with FcgRIIa R is 260 nM and 250 nM; with FcgRIIIa V, 1.2 nM and 1.4 nM; with FcgRIIa H, 85 nM; in the assay with FcgRIIb it was 1500 nM; with FcgRIa, 0.082 nM and 0.12 nM; with FcgRIIIa F, 3.9 nM and 4.8 nM.

B4: H240-FA009/H240-FB016/L73-k0 (antibody)
chain 1: QDQLVQSGAEVKKPGASVKVSCKASGFNIKDTYIQWVRQAPGQGLEWMGRIDPLRKQTKYREKFEGRVTITADTSTNTAYMELSSLRSEDTAVYYCVRSGREFDYWGQGTLVTVSSASTKGPSVFPLAPSSKSTSGGTAALGCLVKDYFPEPVTVSWNSGALTSGVHTFPAVLQSSGLYSLSSVVTVPSSSLGTKTYICNVNHKPSNTKVDKKVEPKSCDKTHTCPPCPAPEYYWGPSVFLFPPKPKDTLMISRTPEVTCVVVDVSDEEPEVKFNWYVDGVEVHNAKTKPREEQYNATYRVVSVLTVLHQDWLNGKEYKCKVSNKALPAPIEKTISKAKGQPREPQVYTLPPSRKEMTKNQVSLTCLVKGFYPSDIAVEWESNGQPENNYKTTPPVLDSDGSFFLYSKLTVDKSRWQQGNVFSCSVMHEALHNRYTQKSLSLSP
chain 2: QDQLVQSGAEVKKPGASVKVSCKASGFNIKDTYIQWVRQAPGQGLEWMGRIDPLRKQTKYREKFEGRVTITADTSTNTAYMELSSLRSEDTAVYYCVRSGREFDYWGQGTLVTVSSASTKGPSVFPLAPSSKSTSGGTAALGCLVKDYFPEPVTVSWNSGALTSGVHTFPAVLQSSGLYSLSSVVTVPSSSLGTQTYICNVDHKPSNTKVDKKVEPKSCDKTHTCPPCPAPELLGGPSVFLFPPKPKDTLMISRTPEVTCVVVDVSHEEPEVQFNWYVDGVEVHNAKTKPREEQYNSTYRVVSVLTVLHQDWLNGKEYKCKVSNDALPMPIEETISKAKGQPREPQVYTLPPSREEMTKNQVSLTCLVKGFYPSDIAVEWESNGQPENNYKTTPPVLDSDGSFFLYSKLTVDKSRWQQGNVFSCSVMHEALHNHYTQESLSLSP
chain 3: DIQMTQSPSSLSASVGDRVTITCRASQDIHKYIAWYQQKPGQAPRLLIQYTSTLQPGVPSRFSGSGSGTDYTFTISSLQPEDIATYYCLQYEQLRTFGGGTKVEIKRTVAAPSVFIFPPSDEQLKSGTASVVCLLNNFYPREAKVQWKVDNALQSGNSQESVTEQDSKDSTYSLSSTLTLSKADYEKHKVYACEVTHQGLSSPVTKSFNRGEC
In the case of B4, the Kd came to 250 nM with FcgRIIa R; 1 nM with FcgRIIIa V; 70 nM with FcgRIIa H; 1400 nM with FcgRIIb; 0.13 nM with FcgRIa; 4.4 nM in the assay with FcgRIIIa F.
